The values below come from patent EP4663662A1.

Like-named read-outs stand apart in the source and are kept apart here.

As a reminder, the EC50 is the concentration giving half of the maximal effect. As usually defined, the Kd is the concentration at which binding is half-saturated. The koff is a measure of how fast the partners let go of each other. Broadly, the kon is the second-order rate constant of association.

Test [1] has as its target human GPRC5D (human) (UniProt Q9NZD1). The test can be described thus: flow cytometry, human GPRC5D-CHOK1 cells; negative control. (A flow cytometer gives signals particle by particle.)
The target in test [2] is human BCMA (human) (UniProt Q02223). Nature of the test: flow cytometry, human BCMA-CHOK1 cells; negative control.
Test [3] addresses human CD3 on cells (Jurkat cells, human PBMCs) (human) (UniProt P07766). The test can be described thus: flow cytometry, Jurkat cells; negative control.
Test [4] addresses dual targets human BCMA and human GPRC5D on tumor cells (NCI-H929, RPMI8226) (human). Nature of the test: flow cytometry, NCI-H929 cells (express BCMA and GPRC5D); negative control.
The target of test [5] is cynomolgus monkey CD3 on cyno PBMCs (cynomolgus monkey) (UniProt Q95LI5). Nature of the test: flow cytometry, cyno PBMCs; negative control.
Test [6] deals with dual targets human BCMA and human GPRC5D on tumor cells (NCI-H929, RPMI8226) (human). The test can be described thus: flow cytometry, RPMI8226 cells (express BCMA and GPRC5D); negative control.
Test [7] concerns the target human CD3 on cells (Jurkat cells, human PBMCs) (human) (UniProt P07766). The test can be described thus: flow cytometry, human PBMCs; negative control.
The target in test [8] is cynomolgus monkey CD3 on cyno PBMCs (cynomolgus monkey) (UniProt Q95LI5). Nature of the test: flow cytometry, cyno PBMCs.
Test [9] deals with human BCMA (human) (UniProt Q02223). Nature of the test: flow cytometry, RPMI8226 cells (express BCMA and GPRC5D).
The target in test [10] is human CD3 on cells (Jurkat cells, human PBMCs) (human) (UniProt P07766). Nature of the test: flow cytometry, human PBMCs.
Test [11] shares this target. The test can be described thus: flow cytometry, Jurkat cells.
A further test has as its target soluble BCMA (UniProt Q02223). The test can be described thus: cell-based or functional assay.
The target in test [12] is human CD3 protein (Acro, Cat. No. CDD-H52W1) (human) (UniProt P07766). Nature of the test: SPR (Biacore), CD3 immobilised on CM5, antibody as analyte, 1:1 fit.
In test [13] the target is cynomolgus monkey CD3 protein (Acro, Cat. No. CDD-C52W4) (cynomolgus monkey) (UniProt Q95LI5). The test is described as above.
Test [14] has as its target cynomolgus monkey BCMA (cynomolgus monkey). Nature of the test: flow cytometry, cynomolgus BCMA-CHOK1 cells.
Test [15] deals with human BCMA (human) (UniProt Q02223). The test can be described thus: flow cytometry, NCI-H929 cells (express BCMA and GPRC5D).
Test [16] shares this target. Nature of the test: flow cytometry, human BCMA-CHOK1 cells.
Test [17] has as its target human GPRC5D (human) (UniProt Q9NZD1). The test can be described thus: flow cytometry, human GPRC5D-CHOK1 cells.
Test [18] deals with cynomolgus monkey BCMA protein (Acro, Cat. No. BCA-C52H7) (cynomolgus monkey). Nature of the test: SPR (Biacore), antibody captured by anti-human IgG Fc, BCMA as analyte, 1:1 fit. (In SPR one partner is held on a chip, and binding of the other changes the refractive index at the surface.)
In test [19] the target is human BCMA protein (Acro, Cat. No. BCA-H522y) (human) (UniProt Q02223). Described as above.
Test [20] deals with cynomolgus monkey GPRC5D (cynomolgus monkey). The test can be described thus: flow cytometry, cynomolgus GPRC5D-CHOK1 cells; control.
Test [21] concerns the target cynomolgus monkey BCMA (cynomolgus monkey). Nature of the test: flow cytometry, cynomolgus BCMA-CHOK1 cells; control.
In test [22] the target is human GPRC5D (human) (UniProt Q9NZD1). Nature of the test: flow cytometry, human GPRC5D-CHOK1 cells; control.
Test [23] addresses cynomolgus monkey BCMA (cynomolgus monkey). Nature of the test: flow cytometry, cynomolgus BCMA-CHOK1 cells; control. The source holds these as a separate data set.
The target of test [24] is human BCMA (human) (UniProt Q02223). Nature of the test: flow cytometry, human BCMA-CHOK1 cells; control.
Test [25] has as its target cynomolgus monkey GPRC5D (cynomolgus monkey). The test can be described thus: flow cytometry, cynomolgus GPRC5D-CHOK1 cells; control. The source holds these as a separate data set.
Test [26] deals with human GPRC5D (human) (UniProt Q9NZD1). The test can be described thus: flow cytometry, NCI-H929 cells; control.
The target of test [27] is human BCMA (human) (UniProt Q02223). The test can be described thus: flow cytometry, human BCMA-CHOK1 cells; control. The source holds these as a separate data set.

human BCMA (human), sequence (Q02223 whole entry): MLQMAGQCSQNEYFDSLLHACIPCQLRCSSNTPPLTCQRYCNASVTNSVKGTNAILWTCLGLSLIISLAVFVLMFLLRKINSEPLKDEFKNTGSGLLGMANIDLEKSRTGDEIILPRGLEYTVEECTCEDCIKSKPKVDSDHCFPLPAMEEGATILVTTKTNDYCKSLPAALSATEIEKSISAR
cynomolgus monkey BCMA (cynomolgus monkey), sequence (Q02223 other isoform, or with tags, fused parts or gaps): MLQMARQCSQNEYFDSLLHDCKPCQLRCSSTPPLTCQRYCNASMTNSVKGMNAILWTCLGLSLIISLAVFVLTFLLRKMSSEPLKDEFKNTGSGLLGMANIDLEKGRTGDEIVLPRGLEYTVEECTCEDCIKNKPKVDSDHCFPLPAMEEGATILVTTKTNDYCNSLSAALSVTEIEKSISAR
cynomolgus monkey CD3 protein (Acro, Cat. No. CDD-C52W4) (cynomolgus monkey), sequence (Q95LI5 22-117): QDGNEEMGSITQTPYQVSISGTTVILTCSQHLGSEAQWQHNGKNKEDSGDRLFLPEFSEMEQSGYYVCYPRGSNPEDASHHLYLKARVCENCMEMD
human CD3 protein (Acro, Cat. No. CDD-H52W1) (human), sequence (P07766 23-126): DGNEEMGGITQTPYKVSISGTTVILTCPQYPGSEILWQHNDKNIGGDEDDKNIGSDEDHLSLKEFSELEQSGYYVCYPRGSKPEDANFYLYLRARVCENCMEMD
cynomolgus monkey CD3 on cyno PBMCs (cynomolgus monkey), sequence (Q95LI5 22-198): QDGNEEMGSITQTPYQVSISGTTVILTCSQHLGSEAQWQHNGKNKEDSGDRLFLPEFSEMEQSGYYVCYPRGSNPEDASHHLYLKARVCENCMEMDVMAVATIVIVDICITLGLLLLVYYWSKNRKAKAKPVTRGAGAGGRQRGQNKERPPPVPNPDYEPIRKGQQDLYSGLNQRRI
human BCMA protein (Acro, Cat. No. BCA-H522y) (human), sequence (Q02223 1-54 limits assumed): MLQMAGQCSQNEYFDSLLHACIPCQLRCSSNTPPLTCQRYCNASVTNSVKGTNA
human CD3 on cells (Jurkat cells, human PBMCs) (human), sequence (P07766 23-207): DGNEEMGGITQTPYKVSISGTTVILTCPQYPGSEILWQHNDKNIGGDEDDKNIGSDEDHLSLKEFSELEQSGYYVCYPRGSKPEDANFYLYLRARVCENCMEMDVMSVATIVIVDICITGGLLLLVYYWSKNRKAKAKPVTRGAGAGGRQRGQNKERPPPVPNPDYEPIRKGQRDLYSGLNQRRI
human GPRC5D (human), sequence (Q9NZD1 whole entry): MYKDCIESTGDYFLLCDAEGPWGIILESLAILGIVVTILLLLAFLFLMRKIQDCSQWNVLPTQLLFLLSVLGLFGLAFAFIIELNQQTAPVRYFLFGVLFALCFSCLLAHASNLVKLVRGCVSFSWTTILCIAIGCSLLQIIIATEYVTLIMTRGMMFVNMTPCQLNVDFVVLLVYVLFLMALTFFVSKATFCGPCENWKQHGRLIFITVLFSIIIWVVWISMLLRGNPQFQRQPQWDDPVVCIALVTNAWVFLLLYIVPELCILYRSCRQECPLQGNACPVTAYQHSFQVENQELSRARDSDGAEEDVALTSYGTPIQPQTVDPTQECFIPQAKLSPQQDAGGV
dual targets human BCMA and human GPRC5D on tumor cells (NCI-H929, RPMI8226) (human), sequence (chain, as listed by the source, chain 1 of 2): as the sequence (Q02223 whole entry) above
dual targets human BCMA and human GPRC5D on tumor cells (NCI-H929, RPMI8226) (human), sequence (chain, as listed by the source, chain 2 of 2): as the sequence (Q9NZD1 whole entry) above
cynomolgus monkey GPRC5D (cynomolgus monkey), sequence (Q9NZD1 other isoform, or with tags, fused parts or gaps): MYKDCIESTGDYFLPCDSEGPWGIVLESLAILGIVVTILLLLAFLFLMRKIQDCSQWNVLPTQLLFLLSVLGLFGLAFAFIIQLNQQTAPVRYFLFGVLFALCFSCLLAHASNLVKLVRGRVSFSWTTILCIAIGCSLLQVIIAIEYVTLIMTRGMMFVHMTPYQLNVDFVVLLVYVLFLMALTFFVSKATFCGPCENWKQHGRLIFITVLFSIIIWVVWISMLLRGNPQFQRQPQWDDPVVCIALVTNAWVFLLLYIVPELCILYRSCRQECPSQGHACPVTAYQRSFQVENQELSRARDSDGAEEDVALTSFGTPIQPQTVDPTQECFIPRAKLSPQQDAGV
soluble BCMA, sequence (Q02223 1-54 limits assumed): as the sequence (Q02223 1-54 limits assumed) above

As for “hIgG1 LALA isotype (Biointron, Cat. No. B109802) (antibody)”, the Top MFI with human GPRC5D (human) [1] turned out to be 100 MFI; with human BCMA (human) [2], 119 MFI; in test [3], 77.6 MFI; in test [4], 104 MFI; in test [5], 93.3 MFI; in test [6], 112 MFI. Besides, the Top MFI in test [7] came out at 96.1 MFI.
With “Teclistamab analogue (BCMA/CD3) (bispecific antibody)”, the EC50 in test [8] was found to be 55.8 nM; with human BCMA (human) [9], 1.17 nM; in test [10] it was 6.06 nM; in [11] it was 3.22 nM; in [14], 15.3 nM; in the test with human BCMA (human) [15] it was 2.43 nM. Also, the half-maximal effective concentration (EC50) in the test with human BCMA (human) [16] was found to be 2.63 nM. Besides, the Top MFI in [8] is 2060 MFI; with human BCMA (human) [9], 169 MFI; in test [10], 672 MFI; in test [11], 825 MFI; in test [14], 1770 MFI; with human BCMA (human) [15], 669 MFI. Moreover, the Top MFI in the test with human BCMA (human) [16] turned out to be 2280 MFI; with human GPRC5D (human) [17], 160 MFI. For the same substance, in the test with soluble BCMA, the Ratio (EC50) of TDCC on NCI-H929, 2.5 ug/ml BCMA against 0 ug/ml BCMA worked out at 21 fold. In addition, the fold change of TDCC EC50 on NCI-H929 in the presence of 2500 ng/ml soluble BCMA in the test with soluble BCMA amounted to 25 fold. Also, the dissociation constant (Kd) in [12] was found to be 21 nM; in test [13] it was 21.1 nM; in test [18] it was 8.49 nM; in test [19], 0.379 nM. For the same substance, the off-rate constant (koff) in test [12] was 0.00522 s⁻¹; in test [13] it was 0.00336 s⁻¹; in [18], 0.0235 s⁻¹; in test [19] it was 0.00135 s⁻¹. The kon amounted to 248000 M⁻¹ s⁻¹ in test [12], 159000 M⁻¹ s⁻¹ in test [13], 2.77e+06 M⁻¹ s⁻¹ in test [18] and 3.55e+06 M⁻¹ s⁻¹ in test [19].
In test [12], “Talquetamab analogue (GPRC5D/CD3) (bispecific antibody)” had a Kd of 18 nM, an off-rate constant (koff) of 0.00201 s⁻¹ and an on-rate constant (kon) of 112000 M⁻¹ s⁻¹. Also, in [13], the dissociation constant (Kd) stood at 22.2 nM, the koff was 0.00379 s⁻¹ and the kon is 170000 M⁻¹ s⁻¹.
On to IgG1 AA (antibody), for which the Top MFI in test [20] was 1840 MFI; in [21], 82.6 MFI; in the test with human GPRC5D (human) [22] it was 36 MFI; in test [23] it was 382 MFI; with human BCMA (human) [24], 89.1 MFI; in [25], 85 MFI. Further, the figures for the Top MFI with human GPRC5D (human) [26] and with human BCMA (human) [27] were 178 MFI and 232 MFI, respectively.
